# According to patent US5846764, “Materials and methods relating to proteins that interact with casein kinase I” (ICOS Corporation, dated 1998):
# B1: GAL4 activation domain::TIH3 library clone (pGAD::TIH3) (other)
# chain: IKPMVESNCKNGQISATKDLVKLVEEFVEKYVELSKEKADTLKPLPSVTSFGSPRKVAAPELSMVQPESKPEAEAEISEIGSDRWRFNWVNIIILVLLVLNLLYLMKLNKKMDKLTNLMTHKDEVVAHATLLDIPAQVQWSRPRRGDVL
# B2: GAL4 activation domain::TIH2 library clone (pGAD::TIH2) (other)
# chain: RSSSNLSLDSLSKMSGSGNNNTSNNQLFSTLMNGINANSMMNSPMNNTINNNSSNNNNSGNIILNQPSLSAQHTSSSLYQTNVNNQAQMSTERFYAPLPSTSTLPLPPQQLDFNDPDTLEIYSQLLLFKDREKYYYELAYPMGISASHKRIINVLCSYLGLVEVYDPRFIIIRRKILDHANLQSHLQQQGQMTSAHPLQPNSTGGSMNRSQSYTSLLQAHAAAAANSISNQAVNNSSNSNTINSNNGNGNNVIINNNSASSTPKISSQGQFSMQPTLTSPKMNIHHSSQYNSADQPQQPQPQTQQNVQSAAQQQQSFLRQQATLTPSSRIPSGYSANHYQINSVNPLLRNSQISPPNSQIPINSQTLSQAQPPAQSQTQQRVPVAYQNASLSSQQLYNLNGPSSANSQSQLLPQHTNGSVHSNFSYQSYHDESMLSAHNLNSADLIYKSLSHSGLDDGLEQGLNRSLSGLDLQNQNKKNLW
# B3: GAL4 activation domain::TIH1 library clone (pGAD::TIH1) (other)
# chain: DQLKSYAEEQLKLLLGITKEEQIDPGRELLNMLHTAVQANSNNNAVSNGQVPSSQELQHLKEQSGEHNQQKDQQSSFSSQQQPSIFPSLSEPFANNKNVIPPTMPMANVFMSNPQLFATMNGQPFAPFPFMLPLTNNSNSANPIPTPVPPNFNAPPNPMAFGVPNMHNLSGPAVSQPFSLPPAPLPRDSGYSSSSPGQLLDILNSKKPDSNVQSSKKPKLKILQRGTDLNSLKQNNNDETAHSNSQALLDLLKKPTSSQKIHASKPDTSFLPNDSVSGIQDAEYEDFESSSDEEVETARDERNSLNVDIGVNVMPSEKDSRRSQKEKPRNDASKTNLNASAESNSVEWGAG
# B4: GAL4 activation domain::TIH4 library clone (pGAD::TIH4) (protein)
# chain: RRMISELKNRSNIGEPLTKSSNESTYKDIKATGNDGDPNLALMRAENRVLKYKLENCEKLLDKDVVDLQDSEIMEIVEMLPFEVGTLLETKFQGLESQIRQYRKYTQKLEDKIMALEKSGHTAMSLTGCDGTEVIELQKMLERKDKMIEALQSAKRLRDRALKPLINTQQSPHPVVDNDK
# Tests used:
# [1] = target: lexA::HRR25 non-catalytic domain fragment (pBTM116::Non-catalytic) (E. coli; S. cerevisiae) (UniProt P0A7C2); test: yeast two-hybrid (lexA bait, GAL4 prey), liquid β-galactosidase assay
# [2] = target: lexA::HRR25 K→R fusion (pBTM116::HRR25K→R) (E. coli; S. cerevisiae) (UniProt P0A7C2); test: as above
# [3] = target: lexA::HRR25 fusion (pBTM116::HRR25) (E. coli; S. cerevisiae) (UniProt P0A7C2); test: as above
# [4] = target: lexA::HRR25 non-catalytic domain fragment (pBTM116::Non-catalytic) (E. coli; S. cerevisiae) (UniProt P0A7C2); test: yeast two-hybrid (lexA bait, GAL4 activation domain prey), liquid β-galactosidase assay, normalized to vector alone
# [5] = target: lexA::HRR25 catalytic domain fragment (pBTM116::Kinase domain) (E. coli; S. cerevisiae) (UniProt P0A7C2); test: as above
# Chain of lexA::HRR25 catalytic domain fragment (pBTM116::Kinase domain) (E. coli; S. cerevisiae) (P0A7C2 1-202, tags or fused parts left off): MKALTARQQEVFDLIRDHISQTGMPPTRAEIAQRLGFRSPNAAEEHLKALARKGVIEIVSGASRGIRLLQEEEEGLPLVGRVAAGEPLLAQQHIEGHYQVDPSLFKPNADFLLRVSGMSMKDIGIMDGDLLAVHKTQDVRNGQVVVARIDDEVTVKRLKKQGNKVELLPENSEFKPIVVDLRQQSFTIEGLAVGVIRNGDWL
# [6] = target: lexA::HRR25 K→R fusion (pBTM116::HRR25K→R) (E. coli; S. cerevisiae) (UniProt P0A7C2); test: as above
# [7] = target: lexA::HRR25 fusion (pBTM116::HRR25) (E. coli; S. cerevisiae) (UniProt P0A7C2); test: as above
# [8] = target: lexA::NUF1 fusion (pBTM116::NUF1) (E. coli; S. cerevisiae) (UniProt P0A7C2); test: as above
# [9] = target: T1, lexA DNA binding domain alone (pBTM116 vector) (E. coli, UniProt P0A7C2); test: yeast two-hybrid, liquid β-galactosidase assay
# Procedure: To construct pairwise combinations between pBTM116-based plasmids and pGAD-based plasmids, yeast strains of opposite mating types were replica plated in a crossed pattern on YEPD medium (Bio101) and were allowed to mate for 18 hours. Diploid cells were selected by a second replica plating onto SD-leucine, -tryptophan medium to select for cells that contained both pBTM116-type and pGAD-type plasmids. The isolated diploids were grown in liquid SD-leucine, -tryptophan medium to a cell density of 2×10^7 cells/ml and the level of interaction of the kinase and interacting protein, as determined by beta-galactosidase activity, was determined from cells that were lysed by adding 3 drops of chloroform and 50 µl of 0.1 % SDS to 2×10^6 cells suspended in 0.1 ml of Z buffer and subsequently adding 0.2 ml of the chromogenic substrate o-nitrophenyl-β-D-galactoside. β-galactosidase assays were terminated by adding 0.5 ml of 1M Na_2CO_3 and activity was measured by reading absorbance at 420 nm using a Milton Roy spectrophotometer (Rochester, N.Y.). In this assay, the degree of protein/protein interaction is directly proportional to the level of β-galactosidase activity. […] Values were normalized to vector alone controls.
# [10] = target: T1, lexA DNA binding domain alone (pBTM116 …); test: yeast two-hybrid (lexA bait, GAL4 activation domain prey), liquid β-galactosidase assay, normalized to vector alone
# [11] = target: lexA::HRR25 non-catalytic domain fragment (pBTM116::Non-catalytic) (E. coli; S. cerevisiae, UniProt P0A7C2); test: as above
units of β-galactosidase activity [1] [units],units of β-galactosidase activity [2] [units],units of β-galactosidase activity [3] [units],relative β-galactosidase activity [4],relative β-galactosidase activity [5],relative β-galactosidase activity [6],relative β-galactosidase activity [7],relative β-galactosidase activity [8],binding result [9],relative β-galactosidase activity [10],relative β-galactosidase activity [11],Molecule
60,75,15,–,–,–,–,–,–,–,–,GAL4::KAR3 fusion (pGAD::KAR3) (from UniProt P17119)
< 0.1,16,10,–,–,–,–,–,–,–,–,GAL4::KIP2 fusion (pGAD::KIP2) (from UniProt P28743)
70,55,16,–,–,–,–,–,–,–,–,GAL4::KIP1 fusion (pGAD::KIP1) (from UniProt P28742)
< 0.1,28,5,–,–,–,–,–,–,–,–,GAL4::CIN8 fusion (pGAD::CIN8) (from UniProt P27895)
–,–,–,< 5,130,30,100,10,no binding (tested: <5),< 5,–,B1
–,–,–,–,160,150,650,< 5,no binding (tested: <5),< 5,< 5,B2
–,–,–,< 5,820,100,850,< 5,no binding (tested: <5),< 5,–,B3
–,66,70,–,–,–,–,–,–,–,–,B4
